These are literature values, as cited in PMC9221339.

This series deals with IGF-II (Homo sapiens) (UniProt P01344).
Chain of IGF-II (Homo sapiens) (P01344 25-91): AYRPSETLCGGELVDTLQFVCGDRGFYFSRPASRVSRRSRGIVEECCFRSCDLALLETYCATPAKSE

Chain of IGF-1R (P08069 31-736): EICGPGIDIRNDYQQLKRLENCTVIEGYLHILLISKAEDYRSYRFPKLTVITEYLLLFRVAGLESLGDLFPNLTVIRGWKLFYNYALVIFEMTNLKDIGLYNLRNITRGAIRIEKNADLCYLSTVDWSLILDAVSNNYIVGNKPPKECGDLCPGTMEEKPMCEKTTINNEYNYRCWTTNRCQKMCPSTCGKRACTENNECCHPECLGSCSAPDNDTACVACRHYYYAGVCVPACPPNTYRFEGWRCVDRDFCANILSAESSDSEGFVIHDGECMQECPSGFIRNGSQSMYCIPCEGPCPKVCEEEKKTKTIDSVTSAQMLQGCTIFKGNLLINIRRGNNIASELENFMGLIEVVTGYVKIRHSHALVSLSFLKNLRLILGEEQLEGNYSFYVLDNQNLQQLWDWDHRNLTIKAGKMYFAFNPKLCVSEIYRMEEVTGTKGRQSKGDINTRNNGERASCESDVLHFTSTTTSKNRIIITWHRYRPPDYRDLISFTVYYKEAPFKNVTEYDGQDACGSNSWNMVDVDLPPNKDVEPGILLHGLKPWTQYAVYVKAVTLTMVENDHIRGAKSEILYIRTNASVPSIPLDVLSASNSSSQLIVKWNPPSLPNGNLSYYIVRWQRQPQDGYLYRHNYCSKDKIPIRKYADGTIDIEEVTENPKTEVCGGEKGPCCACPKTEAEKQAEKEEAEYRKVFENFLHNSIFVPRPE
Chain of IGF-1R (P08069 741-935): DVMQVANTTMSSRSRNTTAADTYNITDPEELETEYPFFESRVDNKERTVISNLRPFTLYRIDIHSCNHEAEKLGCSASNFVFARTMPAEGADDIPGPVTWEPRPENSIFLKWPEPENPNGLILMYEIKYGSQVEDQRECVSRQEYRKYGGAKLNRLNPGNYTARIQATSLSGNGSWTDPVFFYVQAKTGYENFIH

The Kd is the equilibrium constant for the complex coming apart. In the case of IGF-1R (from UniProt P08069), the dissociation constant Kd is 3 nM.
